One test deals with co-repressor peptide. Description: fluorescence polarisation; fluorescence anisotropy assay in vitro, receptor LBD with co-repressor peptide; conditions not shown (Supplementary Methods).
In another test the target is Gal4-NCoR (ID 1 + 2). The experiment in a line: mammalian two-hybrid assay (luciferase reporter, HEK293 cells). To be noted: 20 h, parent: 100, read off a plot.

In the test with co-repressor peptide, “LXRα ligand-binding domain (LBD) p.M346V (domain or fragment)” displayed a fold reduction of affinity (against the wild-type LBD) of 2 fold. “LXRα-VP16 (wild-type liver X receptor-α fused to VP16) mutant L217P [human] / Gal4-NCoR (ID 1 + 2) [not stated] chain 1 L217P”: the percent of parent with Gal4-NCoR (ID 1 + 2) (LOF sub-panel, highest T0901317 (T09) dose plotted (rightmost point)) is 100 % WT; with Gal4-NCoR (ID 1 + 2) (LOF sub-panel, untreated condition (leftmost point, plotted an order of magnitude below the lowest T09 dose)) it was 75 % WT. With “LXRα-VP16 (wild-type liver X receptor-α fused to VP16) mutant M346V [human] / Gal4-NCoR (ID 1 + 2) [not stated] chain 1 M346V”, the percent of parent with Gal4-NCoR (ID 1 + 2) (GOF sub-panel, highest T0901317 (T09) dose plotted (rightmost point)) worked out at 12 % WT; with Gal4-NCoR (ID 1 + 2) (GOF sub-panel, untreated condition (leftmost point, plotted an order of magnitude below the lowest T09 dose)), 65 % WT.

The record behind these values is PMC11496107.
